Data from the supplement of paper PMC12636428.

What follows are sequences tested on Saccharomyces cerevisiae (assay: transcriptional activation domain activity (GFP:mCherry ratio, weighted mean of sorted bins, harmonized to initial dataset scale) (arbitrary fluorescence ratio units); higher = stronger transcriptional activation). Conditions: beta-estradiol 1 µM; induction time 4 h.
How it was run: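 Activation activity, the read-weighted mean of bin median fluorescence averaged across barcodes, was linearly mapped onto the scale of the initial dataset. It was measured for barcoded protein tiles fused to an estradiol-inducible synthetic transcription factor at URA3 in GFP-reporter yeast diploids. Cultures diluted 1:5 into SC with 1 uM beta-estradiol were held 4 hours at 30 °C, sorted into 8 bins by GFP:mCherry ratio, and barcode-sequenced, and tiles under 50 reads were discarded.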

Going from “AAADAEVDELEDGTADADGAKPKKRKRGGDADGKPKSARKDAPAAAKKKGGAA” to “MWWAFIFFFLLSFFLFLLFLGWLAGWQVCCWGFWFLVGFHFGWLGWFGCGITS”, the “transcriptional activation domain activity” value falls from 36500 to 32000.

Going from “NSTPAKVEEEAEAKPEEAKPEGEEVAKEEEEKKDEEPKPAIGDVVPDAVAVGQ” to “GTEYEIGRPSDEEVTITRMLDKVLRRSDAVDKESLCIVAGQRVWHLRLTLHCL”, the “transcriptional activation domain activity” value rises from 25300 to 68500.

First: PFLLLLPVSLFSFLFFHFFYLFVSFSFFLFCYFFYFLHFFLTFLIFLLFLTFL
Second: NEEEEEASDHEAEEPKPKKKRGRLAKEVDEEPEAPAPKKARGRPRKAVVKEED
The “transcriptional activation domain activity” value of the first is higher: 34900 for the first, 24400 for the second.

First: VKPASRASAKPPSTTGAKKPASRASSRKPASKVGKEDKENGDAAAASAAAPDT
Second: ERLPVDLAVLCTIVEKLFGLAIMTARHRDLGSLHGVLLPRTWILSLWGDFLRF
The “transcriptional activation domain activity” value of the first is lower: 25100 for the first, 71700 for the second.

Going from “MVVFGCRCNVMLYILFCNLRFLLRGAVCIQILTMFILWCAMTEIVLSVLPILS” to “MGFASFRKESFCRIGTKELMCARMCLLCPLARSLIFMVLRVVLLLSTLLLVFL”, the “transcriptional activation domain activity” value rises from 47300 to 61900.

Compared with “AFVLFLVYLTLFCWVCFATSSSWVYSEILNEGQYTESFMPVNYVLLAVLSGII”, “HHFVWERCLPDQMFVFAEDDIAHILNVTISSLELPMKTRQEIWVPSNVLFLCA” is lower in “transcriptional activation domain activity” value: 64600 for the first, 54200 for the second.

Going from “KNNDATIDNELTQILNEYNMNFNDNLGTSTSGKNKSACPSSFDANAMTKINPS” to “CYFLLLLHLPCYRFLFLFLLWLLGQVSHFFLLSHHLIILFWGFVILYSYYIST”, the “transcriptional activation domain activity” value rises from 51800 to 63000.

Compared with “ILLMLATGQWRLLIDALVSMSDIEVQFFLRQLALCKLVNWKASIVNGYPSPVE”, “NVLLLGLLGWLIRLVHNSEPTLVLKKLCSTLVTYFTRQSFRWRRCIKHLVCAF” is lower in “transcriptional activation domain activity” value: 52400 for the first, 39900 for the second.

Compared with “MFTGTLWLAFFLDCCLWWYMMFLCFWYEACLHVLLLGFHVYCLLWCMILSLSL”, “EDEEETAAARSTSKRTRRGRVLDDSDEEDDEAGTVSPAKAATGAESEGEAGAA” is lower in “transcriptional activation domain activity” value: 58200 for the first, 30000 for the second.

Going from “MFVFHMFVFYFVCLFFICLSFILYALFFMSYFYFLLVYFDICFLFLYLFLIFI” to “QKVGSDKTPGGGSSQYIWLIVYLSISLLSSVLVATTMLLIYTGSLRASVILHE”, the “transcriptional activation domain activity” value rises from 15300 to 53500.

Going from “KVKKEKKEKKHRRHHHRHRDGSDDERSHKRRRRDDDKRGHRSSRSEHRRRSDS” to “IVITCLPVTLLLFGKMVDVLDDYYLGIFELVLLFFAFYIFPIFYIFARVILLV”, the “transcriptional activation domain activity” value rises from 29800 to 53800.

First: MCYQGQHVYLNHEVFAQSLLAVGFARCQVRLMWVAGIRPIVRVSTNNFLGSIR
Second: HSILGFRFPRLRIMRCITCSSMRPDLRWLTFPIFENLEVFITSLYLTRKYWIQ
The “transcriptional activation domain activity” value of the first is lower: 44800 for the first, 58300 for the second.

Going from “RPSGASTPVQPTPEPDNKKRRRGKGGDDAETDGKPVKKAKRGRKPKVVQEPKV” to “HAVTYWMCLELTIHLFYTFNRRSTLYFWSILVSICSIISMTILLELIIFVYPL”, the “transcriptional activation domain activity” value rises from 33200 to 56200.

Compared with “MLFLMYIFYLCRCLLLFFLTDIMISLLLPSLFSPLITLFLFFTLFKYMYIYAN”, “PLLVLSKRLHSIFMLRCFNDCFAVLGLWLAIFCYQRDQWHLGSFFYSTGLNVK” is higher in “transcriptional activation domain activity” value: 65400 for the first, 71500 for the second.

Compared with “GKVPRRTERRKLWDDVKALRKELIDILLFSPLSLADIHFRYRKREGGVVNYYL”, “MRFLLTIIHFFLTLFLSYTLFLSVILLFSRLYYFLSIIRSSYAIIWIFFLFIL” is higher in “transcriptional activation domain activity” value: 21800 for the first, 52000 for the second.

Going from “LLYVMALLMWLFAIAILFPPSALTVVRHDFLEQIPQVVPNLDVAYGRNIEGVK” to “SPAPSFRGKSKAEEERERAVLDITDRVSKLLRKTQLQVRVIVECIHCKSPKHL”, the “transcriptional activation domain activity” value falls from 41800 to 33300.

Going from “MDSLFFFFFLLFFFSSCFGFGCSVGLFLFFSVVCNLYFCLLRSYMYLLALLFT” to “IIVICSVALYKVVSITGVGLVCLLLAGYLCFFNLFCSNVIRLSLLFLPINARP”, the “transcriptional activation domain activity” value rises from 51500 to 58000.

Going from “GAATTANAGGKRNRMKVNGKYYTRLDCIGRGGSSRVYRVMAENSKFFALKRVT” to “PLGTVGLAKLVFVKMFGGAKRITITLISAALLMMAVRFFSIAHPFLLADNRHY”, the “transcriptional activation domain activity” value rises from 35500 to 62400.

First: HLKHTFVMDVAMSIGYLMAPVLVSACAFIWYVKVDNHELSASVVFVSITLFDM
Second: MIKFSLLIFLIVFILDYLIFFCFFFFFLFFYFFIQFTLFMVCGGDLIYGFING
The “transcriptional activation domain activity” value of the first is higher: 61800 for the first, 43200 for the second.

First: ICYVSLCVVISMCDLLVLWRCWVIWTALDHHLAYLVTFVPVIMLLSSFVMGTF
Second: RVFTKIRRLLIRLKKHDIHAVCAALLTYIFWPTAFLRAYCLDSIYYDPASRDK
The “transcriptional activation domain activity” value of the first is lower: 44100 for the first, 54100 for the second.

Going from “MESAKKAVESVAEGIKKVAISGDQKPAAGGKKEGGKKEKKAAKAGAEVSSGPL” to “ALYSLFIECTLAPMLLKAIKDRVGEITLDFCWRAYKVYLTSICYLWKNVSLII”, the “transcriptional activation domain activity” value rises from 34300 to 40600.

Compared with “HCIEAGIKLVSQFIDMYKEFSPGGKLCQVCWMLTNFSMNDFLLGVMVLCLVIH”, “ENVRGIMTENIERVLERGERIDLLVDKTGRLNVNAGEFRRRSRGLRRRMWWKN” is lower in “transcriptional activation domain activity” value: 56200 for the first, 37700 for the second.

First: TRTLFMVPQLCCAFSSMWLYQILVAVSIYLTNHVGIMMVRVWSYCVAVYVLEV
Second: MYICIYLLLGFVVWGISLICLVVIVILYILDNSFCSPYTSCSTSFPFLISLFY
The “transcriptional activation domain activity” value of the first is higher: 69800 for the first, 40300 for the second.

First: HSVHAGLIFPLFHRHCFYMLESSLRTKSDRLVFNSLSSHAGVIAWLRTQGVLQ
Second: MIGVCWVGGGIGVWCFCELTSSSFYPIDLVDFFFSFFCFLNFLLAFDFGLLLA
The “transcriptional activation domain activity” value of the first is higher: 65500 for the first, 57000 for the second.

First: APFSKGPRMWNEVYITSLAHGCLVNRLFCSLAWCELYLIFGNIFRRLDLKLFV
Second: MRILGCVVNAHLKQMIHRNSLLIIPECPRMFWLGCQTRCVVLGEWIGLHANRF
The “transcriptional activation domain activity” value of the first is lower: 58100 for the first, 69300 for the second.

First: MLLLPYAVFCIISFFHSFLFFLLLGGWLGCIFYLRVVHMHWLVRWFVWLVHGG
Second: SKGAKKDAGPRGAVRRAKKKGGVEPEKKKREKDGGSREKSRSSSKKEKGGFER
The “transcriptional activation domain activity” value of the first is higher: 65300 for the first, 15200 for the second.

Compared with “AYSITLPICSSPILLLFIQSLLFLLPLFSITLSPSFSFILYLLHLFSLLLLCL”, “MRYGHLYTWIIILKYSLVLHQVFSLYLCIIFLAIIVFLIFVYWLMLEIFLVLF” is higher in “transcriptional activation domain activity” value: 30200 for the first, 80500 for the second.

Compared with “DIIPDHYKHKPISLYDPRKAPLLNQYRLIVPRSRNIIEVCQFIILLLLYCLSM”, “TIIGLTSAVLLPVVVFIPYIPCWLFLYLVNLLFPLIFICFTGKVIQLTFLYYS” is lower in “transcriptional activation domain activity” value: 78100 for the first, 50100 for the second.

First: SGDADEDGNGHGTHCSGTVAGKKYGVAKKAHVYAVKVLRSNGSGTMSDVVKGV
Second: YVKSRGYKTIIRFFPHEVADLELARACMRGAAREPRQWALRYAALLWLALICM
The “transcriptional activation domain activity” value of the first is lower: 42000 for the first, 68700 for the second.

First: GSELEVKKPSKKRAPKKAAKKEEYEGSEMDEKPAPKRRAPARSTKKAAKKEEA
Second: LLMYTLFYMISEIFYSVAYDAHYFMFDPISVALVQCPMFACVVISVLYGHIWS
The “transcriptional activation domain activity” value of the first is lower: 15800 for the first, 57800 for the second.

Going from “MRQRLGGQLFSKSFFYALLVTSTWSSKLVYLSPHFTSLPPLLILLYAPTFLLL” to “PAPAPEAPKEEEAAAEPAAEPPKTEEAPAAEPVKEPEQAEPTPAADAPADAPA”, the “transcriptional activation domain activity” value falls from 60600 to 18900.

Compared with “NSTIHNLLELVLLPELCGFCCFSMRFVVMIDLIGTLTLPSSVVYLVYLIYVVI”, “ELYGKPSMEAIFLLFAHYLYAGACAKGEHLIITTWDMYYEKLGFMLIFWNMAG” is higher in “transcriptional activation domain activity” value: 56700 for the first, 64300 for the second.

Compared with “MIWCSFLLALSWSYFCDLPCFFFFFFFFFFFFFFFADIYCSFLSFKLITPISF”, “ALNWYFLGTTMYFLYGESVIYYFKHILLVDRIFLPLATHHRFISFMLYILGFV” is higher in “transcriptional activation domain activity” value: 52600 for the first, 66300 for the second.

Compared with “DEDATNENMSGPAMDVDEARNFINARLDLLKRTLHPNPIVVTAQLLKAVWAAY”, “SVYCLLLILFIPYPFSDVFAKCKHASLEGLACGDFPHNQLSIYLAAILCLLIA” is higher in “transcriptional activation domain activity” value: 36200 for the first, 49800 for the second.

First: MPASSSTAAASPGNSHNVVGVHYKVGKKIGEGSFGIIYEGKQKEERTNLLNNQ
Second: EAAARRERKQAAEKGENRERKRRTQGLQNNTARSQKDGDGKGEGGKDNKKDGK
The “transcriptional activation domain activity” value of the first is higher: 35300 for the first, 29200 for the second.

First: HNILHLFSICVFRYHMLYYDEVRYIWKRWRRRSTYWFFLNRYFNFFGNGAITV
Second: HVERGRDVTKGFVKCHTHMRTTCVGSIRFSHAASFAPSVCLGVGVKSLDRRPL
The “transcriptional activation domain activity” value of the first is higher: 64600 for the first, 37300 for the second.

Compared with “ETEGFAKMAKAMGFGVYGLPSYIIKHIYNNCTHLFVVWHYGTLLIHLTAYPSF”, “SFPIRHIEDKLRNKGHVKTGILSANDGVPPTPNLLDYDWNNLNITGYEWISSE” is higher in “transcriptional activation domain activity” value: 73700 for the first, 93900 for the second.

First: NKEKMAAFGSFVTEDQEKMEVSFNIFNEITIQDLNFLQFSSIPKLWENKTLEP
Second: ILLANLECFPKEKIWDKTIVGGRCLDPIQVKLIWVYNAAVNLGLDVVILILPQ
The “transcriptional activation domain activity” value of the first is higher: 79600 for the first, 32200 for the second.

First: MNAVQASGLVISLVLYVAVVFILLAGPLLFFLCYFFFLISITFPVHLPPMRVS
Second: MRWFFLLFWVFLSFFLSLQFFSILSFVCGSLACSISLLCRFSLRGAGFCWLGG
The “transcriptional activation domain activity” value of the first is higher: 63800 for the first, 47600 for the second.

Going from “GGAAKPAFGAAPSGGLFGSTANTTANTGGFGGGFGSGTTAASTSSPFGGGAAS” to “ADEYIFHLTHGTLCICEHQGEENVVVVNVKSIISVVAMVPFPFIVRGCNNQYF”, the “transcriptional activation domain activity” value rises from 27700 to 32600.

First: EEDEETSHEVRSKVYKLVKKSDGNQEWNDMGVETGSRRVLLRNSSTGKIVINF
Second: NSLKGMAVDFRWWLLAHKKRPLREVNLILQLDSLTEVIKLACVSPKLSFLCIM
The “transcriptional activation domain activity” value of the first is lower: 25400 for the first, 71000 for the second.

In the case of “EGKGKKGEKREREKRRGRGGKREKRRKREGRRRREKREGKEGGGEKEEKEGEE”, the “transcriptional activation domain activity” value is reported as 29000.
